Results taken from publication PMC10415144, “Structural insights into CodY activation and DNA recognition”.

Tests used:
[1] = molecular target: T1, SaCodY (Staphylococcus aureus, UniProt Q2FHI3 1-257); experiment: BLI; Ile + GTP (implied); BLI: 20 mM Tris-HCl pH 8, 150 mM NaCl, 2 mM MgCl2, 0.1% NP-40, 25 C; 2 mM GTP and/or 10 mM Ile/Leu/Val as stated; conditions: protein: recombinant; tags: His6 removed by TEV; N-terminal Gly-Ala remnant; chain copies: 4; label: 5'-biotin on one strand; 3-nt overhang at biotinylated 5' end
T1 sequence: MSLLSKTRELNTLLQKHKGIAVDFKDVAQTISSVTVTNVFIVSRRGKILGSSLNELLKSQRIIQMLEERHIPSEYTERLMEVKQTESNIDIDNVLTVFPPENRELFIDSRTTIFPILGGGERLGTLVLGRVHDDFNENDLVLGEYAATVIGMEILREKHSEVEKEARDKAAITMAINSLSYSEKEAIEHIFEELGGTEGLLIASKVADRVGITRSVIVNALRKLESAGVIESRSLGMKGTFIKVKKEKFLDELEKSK

[2] = molecular target: T2, EfCodY (Enterococcus faecalis, UniProt Q834K5 1-260); experiment: BLI; 10 mM Leu; BLI: 20 mM Tris-HCl pH 8, 150 mM NaCl, 2 mM MgCl2, 0.1% NP-40, 25 C; 2 mM GTP and/or 10 mM Ile/Leu/Val as stated; conditions: protein: recombinant; tags: His6 removed by TEV; N-terminal Gly-Ala remnant; chain copies: 4; label: 5'-biotin on one strand; 3-nt overhang at biotinylated 5' end
T2 sequence: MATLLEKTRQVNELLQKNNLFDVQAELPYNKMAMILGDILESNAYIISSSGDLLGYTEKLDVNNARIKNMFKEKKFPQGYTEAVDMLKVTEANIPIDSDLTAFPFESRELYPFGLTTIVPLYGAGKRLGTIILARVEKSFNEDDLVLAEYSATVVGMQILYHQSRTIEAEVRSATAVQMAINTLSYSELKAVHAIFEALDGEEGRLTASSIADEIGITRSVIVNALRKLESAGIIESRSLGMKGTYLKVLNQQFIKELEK

[3] = molecular target: T2, EfCodY; experiment: BLI; 1 uM protein; 10 mM Leu; BLI: 20 mM Tris-HCl pH 8, 150 mM NaCl, 2 mM MgCl2, 0.1% NP-40, 25 C; 2 mM GTP and/or 10 mM Ile/Leu/Val as stated; conditions: protein: recombinant; tags: His6 removed by TEV; N-terminal Gly-Ala remnant; chain copies: 4; label: 5'-biotin on one strand; 3-nt overhang at biotinylated 5' end
[4] = molecular target: T1, SaCodY; experiment: BLI; 1 uM protein; 10 mM Ile + 2 mM GTP; BLI: 20 mM Tris-HCl pH 8, 150 mM NaCl, 2 mM MgCl2, 0.1% NP-40, 25 C; 2 mM GTP and/or 10 mM Ile/Leu/Val as stated; conditions: protein: recombinant; tags: His6 removed by TEV; N-terminal Gly-Ala remnant; chain copies: 4; label: 5'-biotin on one strand; 3-nt overhang at biotinylated 5' end
[5] = molecular target: T2, EfCodY; experiment: X-ray crystallography; Leu (bound in dimer 1 only); two dimers per duplex; BLI: 20 mM Tris-HCl pH 8, 150 mM NaCl, 2 mM MgCl2, 0.1% NP-40, 25 C; 2 mM GTP and/or 10 mM Ile/Leu/Val as stated; conditions: protein: recombinant; tags: His6 removed by TEV; N-terminal Gly-Ala remnant; chain copies: 4; blunt
[6] = molecular target: T1, SaCodY; experiment: X-ray crystallography; Ile + GTP; two dimers per duplex; BLI: 20 mM Tris-HCl pH 8, 150 mM NaCl, 2 mM MgCl2, 0.1% NP-40, 25 C; 2 mM GTP and/or 10 mM Ile/Leu/Val as stated; conditions: protein: recombinant; tags: His6 removed by TEV; N-terminal Gly-Ala remnant; chain copies: 4; blunt
[7] = molecular target: T1, SaCodY; experiment: BLI; 1 uM SaCodY; Ile + GTP (implied); BLI: 20 mM Tris-HCl pH 8, 150 mM NaCl, 2 mM MgCl2, 0.1% NP-40, 25 C; 2 mM GTP and/or 10 mM Ile/Leu/Val as stated; conditions: protein: recombinant; tags: His6 removed by TEV; N-terminal Gly-Ala remnant; chain copies: 4; label: 5'-biotin on one strand; 3-nt overhang at biotinylated 5' end
[8] = molecular target: EfCodY quadruple mutant (Enterococcus faecalis, UniProt Q834K5 1-260, Y186A;R238A;L240A;Y246A); experiment: BLI; 8 uM protein, 10 mM Leu; BLI: 20 mM Tris-HCl pH 8, 150 mM NaCl, 2 mM MgCl2, 0.1% NP-40, 25 C; 2 mM GTP and/or 10 mM Ile/Leu/Val as stated; conditions: protein: recombinant; tags: His6 removed by TEV; N-terminal Gly-Ala remnant; chain copies: 2; label: 5'-biotin on one strand; 3-nt overhang at biotinylated 5' end

B1: hutP operator overlapping sites (dsDNA)
DNA 1: AGTTAATAGTTATCAGAATTTTTAGGAATTGAGTG
DNA 2: CACTCAATTCCTAAAAATTCTGATAACTATTAACT
Kd [1]: 598 nM | binding result [2]: binds

B2: hutP1 single site (dsDNA)
DNA 1: AGTTAATAGTTATCAGAATTTTTAGG
DNA 2: CCTAAAAATTCTGATAACTATTAACT
Kd [1]: 1230 nM

B3: consensus T>G (dsDNA)
DNA 1: CCGCCGGATAATTTGCAGCATTTGCAGCAAATTTAGCCG
DNA 2: CGGCTAAATTTGCTGCAAATGCTGCAAATTATCCGGCGG
binding result [3]: no binding | binding result [4]: no binding

B4: 30-bp crystallization DNA (dsDNA)
DNA 1: GATAATTTTCAGAATTTTCAGAAAATTTAG
DNA 2: CTAAATTTTCTGAAAATTCTGAAAATTATC
binding result [5]: binds | binding result [6]: binds

B5: hutP2 single site (dsDNA)
DNA 1: AGTTCAGAATTTTTAGGAATTGAGTG
DNA 2: CACTCAATTCCTAAAAATTCTGAACT
binding result [7]: no binding

B6: 24-nt sequence-optimized overlapping sites (consensus) (dsDNA)
DNA 1: CCGCCGGATAATTTTCAGAATTTTCAGAAAATTTAGCCG
DNA 2: CGGCTAAATTTTCTGAAAATTCTGAAAATTATCCGGCGG
binding result [8]: no binding
